Four molecules from PMC10474274, “Structural insights into mechanisms of Argonaute protein-associated NADase activation in bacterial immunity” can be followed below.

In general, stoichiometry N refers to the number of molecules, sites or subunits per partner or assembly.

Data set [1] addresses Ago protein from Maribacter polysiphoniae (Maribacter polysiphoniae). As to the kind of experiment: cryo-EM structure; TIR-APAZ/Ago with gRNA and target ssDNA (1:1.5:2), tetramer of heterodimers, 2.95 Å.
In data set [2] the target is TIR-APAZ protein from Maribacter polysiphoniae (Maribacter polysiphoniae). Described as above.
For data set [3], the target named is TIR-APAZ/Ago complex from Maribacter polysiphoniae (Maribacter polysiphoniae). Described as above.
The target of data set [4] is SIR2-APAZ;short prokaryotic Ago (SIR2-APAZ system) (Geobacter sulfurreducens;Geobacter …, UniProt Q74DF6;Q74DF5 1-587;1-473, |). The data set is described as follows: cryo-EM; metal ion at 5'-phosphate; 2 mM MgCl2; heterodimer; 3.0 A; cryo-EM: complex:gRNA:target DNA 1:1.5:2; TIR system 25 mM Tris-HCl pH 7.5, 150 mM NaCl, 2 mM DTT, 2 mM MgCl2; SIR2 system 25 mM HEPES pH 7.9, 150 mM NaCl, 2 mM DTT, 2 mM MgCl2 (gel-filtration buffers); native PAGE conditions not in material. The following applies: protein: recombinant;recombinant; tags: His-SUMO (N-terminal); copies: 1;1; about 25 bp visible.
Chain of SIR2-APAZ;short prokaryotic Ago (SIR2-APAZ system) (chain, as listed by the source |, chain 1 of 2): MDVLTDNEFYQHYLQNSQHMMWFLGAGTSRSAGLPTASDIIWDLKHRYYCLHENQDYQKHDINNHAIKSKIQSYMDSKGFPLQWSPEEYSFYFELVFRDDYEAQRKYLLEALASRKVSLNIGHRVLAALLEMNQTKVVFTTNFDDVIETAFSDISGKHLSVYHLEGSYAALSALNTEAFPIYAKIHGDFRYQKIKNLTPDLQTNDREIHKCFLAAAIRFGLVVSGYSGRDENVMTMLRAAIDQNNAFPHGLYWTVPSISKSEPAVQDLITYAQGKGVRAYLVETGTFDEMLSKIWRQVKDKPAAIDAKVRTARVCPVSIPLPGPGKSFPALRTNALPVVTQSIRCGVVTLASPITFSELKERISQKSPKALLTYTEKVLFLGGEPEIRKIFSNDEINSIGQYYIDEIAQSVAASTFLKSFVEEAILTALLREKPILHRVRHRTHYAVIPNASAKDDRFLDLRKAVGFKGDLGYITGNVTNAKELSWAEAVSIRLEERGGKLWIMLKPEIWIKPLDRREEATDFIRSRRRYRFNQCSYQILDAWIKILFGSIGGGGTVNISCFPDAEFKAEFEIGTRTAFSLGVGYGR
Chain of SIR2-APAZ;short prokaryotic Ago (SIR2-APAZ system) (chain, as listed by the source |, chain 2 of 2): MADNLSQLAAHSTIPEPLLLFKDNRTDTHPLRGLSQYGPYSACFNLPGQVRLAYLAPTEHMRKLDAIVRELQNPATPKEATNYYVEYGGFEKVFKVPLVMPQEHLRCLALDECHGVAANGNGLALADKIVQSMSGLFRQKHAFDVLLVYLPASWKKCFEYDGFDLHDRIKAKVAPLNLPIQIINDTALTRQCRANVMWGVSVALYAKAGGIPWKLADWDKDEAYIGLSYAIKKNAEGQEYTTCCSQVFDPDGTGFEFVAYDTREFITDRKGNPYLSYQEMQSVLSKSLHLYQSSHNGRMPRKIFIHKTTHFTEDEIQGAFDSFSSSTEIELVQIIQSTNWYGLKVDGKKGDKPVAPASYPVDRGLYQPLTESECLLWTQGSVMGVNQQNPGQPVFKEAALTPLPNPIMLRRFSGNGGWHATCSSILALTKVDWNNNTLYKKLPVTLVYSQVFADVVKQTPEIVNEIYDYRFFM

“Ago protein from Maribacter polysiphoniae (natural protein)” registered a stoichiometry N in data set [1] of 2.
“TIR-APAZ protein from Maribacter polysiphoniae (natural protein)”: the stoichiometry N in data set [2] amounted to 4.
Consider “TIR-APAZ/Ago complex from Maribacter polysiphoniae”, for which, in data set [3], the stoichiometry N is 4.

B1: gRNA + target ssDNA (SIR2-APAZ/Ago) (DNA:RNA)
RNA: AUAAUGGUUUCUUAGACGUCGUUUUAGAGCUGUGUUGUUUCG
DNA: CGAAACAACACAGCTCTAAAACGACGTCTAAGAAACCATTAT
modifications: 5'-phosphate on gRNA
As to B1, in data set [4], the binding result is “binds”.
